Assay [1] deals with T1, α1β1 integrin (Homo sapiens, UniProt P05556+P56199).
T1 construct: expressed in transfected cells; host or cells: α1K562 cells
As to the kind of experiment: adhesion of α1K562 cells to immobilized collagen IV. Conditions: for IC50: α1K562 cells, α1β1, collagen IV. In kind it is cell-based. The method, then: Collagen IV (0.2 μg/well) in 0.02 M acetic acid was immobilized by incubation overnight at 4° C. on a 96-well plate. Plates were then blocked with 1% (w/v) BSA (bovine serum albumin) in Hank's Balanced Salt Solution (HBSS) containing 3 mM Mg^2+ at room temperature for 1-2 hours to prevent cells from non-specifically binding to the plates. α1K562 cells were labeled by incubation with 12.5 μM 5-chloromethylfluorescein diacetete (CMFDA) in HBSS for 15 minutes at 37° C. CMFDA labeled α1K562 cells were then pelleted, washed and resuspended in HBSS buffer containing 3 mM Mg^2+ and 1% BSA. […] The plates were washed three times with HBSS containing 3 mM Mg^2+ and 1% (w/v) BSA to remove unbound cells. Bound cells were lysed using 0.5% (v/v) Triton X-100 in H2O. Fluorescent CMFDA released by lysis of adherent cells in a given well was read using a Cytofluor 2350 fluorescence plate reader.
(§1) Adhesive ligands for the selected integrins consisted of collagen IV (0.2 μg/well), collagen I, fibronectin, or vascular cell adhesion molecule-1 (VCAM-1). Adhesive ligands in 0.02 M acetic acid were immobilized overnight at 4° C. on a 96-well plate. Plates were then blocked with 1% (w/v) BSA (bovine serum albumin) in Hank's Balanced Salt Solution (HBSS) containing 3 mM Mg^2+ at room temperature for 1-2 hours to prevent cells from non-specifically binding to the plates. α1K562, α2K562, K562, A5, and Jurkat cells expressing the α1β1, α2β1, α5β1, αIIbβ3, and α4β1 integrins respectively were labeled by incubation with 12.5 μM 5-chloromethylfluorescein diacetate (CMFDA) in HBSS for 15 minutes at 37° C. CMFDA labeled cells were then pelleted, washed and resuspended in HBSS buffer containing 3 mM Mg^2+ and 1% (w/v) BSA. […] Plates were then incubated at 37° C. for 30 minutes as indicated in Table 5 and washed three times with HBSS containing 3 mM Mg^2+ and 1% (w/v) BSA to remove unbound cells. Bound cells were lysed using 0.5% (v/v) Triton X-100 in H2O. Fluorescent CMFDA released by lysis of adherent cells in a given well was read using a Cytofluor 2350 fluorescence plate reader.
(§2) The effect of obtustatin, viperisrastatin, echistatin, and eristostatin on the binding of selected integrins to their adhesive ligands was evaluated using the cell adhesion assay described in Example 6. The integrin-expressing cells, integrins and corresponding adhesive ligands, and the results of the cell adhesion assay are shown in Table 6.

Assay [2] deals with T1, α1β1 integrin. As to the kind of experiment: adhesion of α1K562 cells to collagen I. Conditions: α1β1, Coll I. In kind it is cell-based. The procedure: as §1, §2
Assay [3] addresses T1, α1β1 integrin. The assay can be described thus: adhesion of HS.939T cells to collagen IV. In kind it is cell-based. Conditions: α1β1, Coll IV.
For assay [4], the target named is T2, α1β1 integrin (Mus musculus, UniProt P09055+Q3V3R4).
T2 construct: endogenous in cells; host or cells: B16F10 cells
T2 sequence (Q3V3R4 29-1179): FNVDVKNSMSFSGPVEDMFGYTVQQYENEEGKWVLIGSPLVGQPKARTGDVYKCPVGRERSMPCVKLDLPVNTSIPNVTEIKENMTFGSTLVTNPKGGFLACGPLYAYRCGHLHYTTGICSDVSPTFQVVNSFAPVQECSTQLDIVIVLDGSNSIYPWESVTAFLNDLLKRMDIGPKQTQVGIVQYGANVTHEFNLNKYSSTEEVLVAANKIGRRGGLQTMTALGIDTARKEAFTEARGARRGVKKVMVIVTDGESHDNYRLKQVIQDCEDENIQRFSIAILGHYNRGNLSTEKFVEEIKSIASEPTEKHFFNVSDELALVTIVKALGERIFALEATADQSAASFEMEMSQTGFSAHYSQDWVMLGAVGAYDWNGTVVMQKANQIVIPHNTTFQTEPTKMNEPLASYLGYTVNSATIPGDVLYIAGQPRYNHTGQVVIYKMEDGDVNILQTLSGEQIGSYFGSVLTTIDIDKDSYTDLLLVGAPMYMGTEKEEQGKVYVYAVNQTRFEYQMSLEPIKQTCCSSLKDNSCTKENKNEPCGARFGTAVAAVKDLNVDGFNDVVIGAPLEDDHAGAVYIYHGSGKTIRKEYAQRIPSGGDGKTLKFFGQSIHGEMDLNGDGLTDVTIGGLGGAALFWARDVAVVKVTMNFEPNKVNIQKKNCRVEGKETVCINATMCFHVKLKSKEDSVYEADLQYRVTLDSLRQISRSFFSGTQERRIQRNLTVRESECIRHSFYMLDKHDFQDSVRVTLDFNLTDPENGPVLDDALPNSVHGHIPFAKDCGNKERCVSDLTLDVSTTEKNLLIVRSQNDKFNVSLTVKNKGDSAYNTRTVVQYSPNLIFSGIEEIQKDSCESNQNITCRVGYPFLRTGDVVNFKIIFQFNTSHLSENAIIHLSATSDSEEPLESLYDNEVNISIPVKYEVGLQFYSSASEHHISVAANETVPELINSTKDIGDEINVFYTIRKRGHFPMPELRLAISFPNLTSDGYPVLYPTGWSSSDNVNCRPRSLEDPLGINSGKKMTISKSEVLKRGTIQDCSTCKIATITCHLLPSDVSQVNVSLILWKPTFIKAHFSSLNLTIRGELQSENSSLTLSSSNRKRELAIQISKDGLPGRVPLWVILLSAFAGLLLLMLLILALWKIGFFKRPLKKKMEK
T2 sequence (P09055 21-798): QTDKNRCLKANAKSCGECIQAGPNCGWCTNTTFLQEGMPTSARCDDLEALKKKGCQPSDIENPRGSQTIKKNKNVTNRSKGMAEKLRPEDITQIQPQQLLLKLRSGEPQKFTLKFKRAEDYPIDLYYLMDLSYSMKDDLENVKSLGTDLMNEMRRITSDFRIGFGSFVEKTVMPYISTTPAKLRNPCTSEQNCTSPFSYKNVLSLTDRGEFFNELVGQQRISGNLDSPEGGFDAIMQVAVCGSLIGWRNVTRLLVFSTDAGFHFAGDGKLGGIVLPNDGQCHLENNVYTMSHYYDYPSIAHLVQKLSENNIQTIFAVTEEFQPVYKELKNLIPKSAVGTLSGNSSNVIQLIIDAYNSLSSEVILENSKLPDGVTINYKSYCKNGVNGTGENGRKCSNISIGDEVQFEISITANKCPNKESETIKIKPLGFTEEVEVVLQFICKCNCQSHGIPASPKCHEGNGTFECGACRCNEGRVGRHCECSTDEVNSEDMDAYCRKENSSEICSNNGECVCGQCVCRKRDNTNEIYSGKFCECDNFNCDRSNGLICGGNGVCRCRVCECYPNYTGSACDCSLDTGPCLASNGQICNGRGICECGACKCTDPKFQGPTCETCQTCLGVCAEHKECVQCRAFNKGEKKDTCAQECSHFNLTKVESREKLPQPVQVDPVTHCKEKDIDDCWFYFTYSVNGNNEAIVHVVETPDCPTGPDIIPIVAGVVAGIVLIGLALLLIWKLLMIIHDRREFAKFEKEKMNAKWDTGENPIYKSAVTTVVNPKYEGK
As to the kind of experiment: adhesion of B16F10 cells to collagen IV. In kind it is cell-based. Conditions: for IC50: α1β1, Coll IV.

The target of another assay is T3, α6β1 integrin (Homo sapiens, UniProt P05556+P23229).
T3 construct: expressed in transfected cells; host or cells: α6K562 cells
T3 sequence (P23229 24-938 limits assumed): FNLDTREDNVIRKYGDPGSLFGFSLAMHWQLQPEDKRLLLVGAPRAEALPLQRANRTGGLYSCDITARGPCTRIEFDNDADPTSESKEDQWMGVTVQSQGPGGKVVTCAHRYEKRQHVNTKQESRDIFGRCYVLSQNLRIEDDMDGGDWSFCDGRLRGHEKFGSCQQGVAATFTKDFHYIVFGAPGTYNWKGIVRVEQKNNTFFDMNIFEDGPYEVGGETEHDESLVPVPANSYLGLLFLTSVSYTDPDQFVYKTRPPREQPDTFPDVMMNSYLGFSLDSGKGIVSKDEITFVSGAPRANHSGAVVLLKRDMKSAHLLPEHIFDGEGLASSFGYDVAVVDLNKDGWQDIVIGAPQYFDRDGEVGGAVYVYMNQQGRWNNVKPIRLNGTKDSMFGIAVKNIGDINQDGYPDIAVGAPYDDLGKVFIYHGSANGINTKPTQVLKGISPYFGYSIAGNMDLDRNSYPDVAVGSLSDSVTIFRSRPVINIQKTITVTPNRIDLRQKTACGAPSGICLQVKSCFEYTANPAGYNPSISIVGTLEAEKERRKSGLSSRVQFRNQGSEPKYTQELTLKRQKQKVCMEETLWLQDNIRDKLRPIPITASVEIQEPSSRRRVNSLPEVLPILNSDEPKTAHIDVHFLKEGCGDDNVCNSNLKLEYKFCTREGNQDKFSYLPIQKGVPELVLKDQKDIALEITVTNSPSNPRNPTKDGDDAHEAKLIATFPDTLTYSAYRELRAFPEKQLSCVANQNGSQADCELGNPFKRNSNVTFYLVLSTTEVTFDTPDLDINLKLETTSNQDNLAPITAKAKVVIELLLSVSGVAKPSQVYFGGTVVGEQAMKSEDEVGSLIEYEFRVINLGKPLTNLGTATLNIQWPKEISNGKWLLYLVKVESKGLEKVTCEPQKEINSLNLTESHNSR
T3 sequence (P23229 942-1130 partner limits assumed): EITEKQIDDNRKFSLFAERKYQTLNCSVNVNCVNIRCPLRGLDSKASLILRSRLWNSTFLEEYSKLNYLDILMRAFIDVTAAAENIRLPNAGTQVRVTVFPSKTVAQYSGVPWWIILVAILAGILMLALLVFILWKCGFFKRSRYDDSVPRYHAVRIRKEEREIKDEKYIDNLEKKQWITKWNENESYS
T3 sequence (P05556 21-798): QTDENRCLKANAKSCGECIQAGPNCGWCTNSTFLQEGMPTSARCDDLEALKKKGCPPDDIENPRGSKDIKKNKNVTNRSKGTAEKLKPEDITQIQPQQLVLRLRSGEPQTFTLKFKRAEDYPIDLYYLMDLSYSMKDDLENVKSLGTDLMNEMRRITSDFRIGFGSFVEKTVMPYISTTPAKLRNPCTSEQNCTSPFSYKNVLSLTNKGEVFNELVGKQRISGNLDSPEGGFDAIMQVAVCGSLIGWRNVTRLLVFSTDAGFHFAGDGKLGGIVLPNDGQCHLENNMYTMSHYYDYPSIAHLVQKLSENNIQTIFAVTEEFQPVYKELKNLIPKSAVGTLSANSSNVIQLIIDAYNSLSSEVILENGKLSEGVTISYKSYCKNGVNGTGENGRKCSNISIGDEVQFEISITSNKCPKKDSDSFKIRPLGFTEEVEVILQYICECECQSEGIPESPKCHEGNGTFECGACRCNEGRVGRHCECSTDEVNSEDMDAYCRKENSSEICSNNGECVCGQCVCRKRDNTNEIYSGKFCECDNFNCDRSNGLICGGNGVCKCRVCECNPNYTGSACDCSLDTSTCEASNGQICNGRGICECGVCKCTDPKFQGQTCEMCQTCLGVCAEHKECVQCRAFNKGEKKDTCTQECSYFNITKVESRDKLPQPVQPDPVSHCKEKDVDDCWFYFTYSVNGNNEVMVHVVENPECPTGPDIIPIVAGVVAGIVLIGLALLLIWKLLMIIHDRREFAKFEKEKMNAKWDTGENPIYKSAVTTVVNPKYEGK
As to the kind of experiment: adhesion of α6K562 cells to laminin. Conditions: α6β1, LM. In kind it is cell-based.

In a further assay the target is T4, α5β1 integrin (Homo sapiens, UniProt P05556+P08648).
T4 construct: endogenous in cells; host or cells: K562 cells
As to the kind of experiment: adhesion of K562 cells to fibronectin. In kind it is cell-based. The procedure:
as §1, §2

The target of another assay is T5, α4β1 integrin (Homo sapiens, UniProt P05556+P13612).
T5 construct: endogenous in cells; host or cells: Jurkat cells
The assay can be described thus: adhesion of Jurkat cells to VCAM-1. It counts as cell-based. Conditions: α4β1, VCAM-1. The procedure:
as §1, §2

The target in a further assay is T6, α9β1 integrin (Homo sapiens, UniProt P05556+Q13797).
T6 construct: expressed in transfected cells; host or cells: SW480α9 cells
T6 sequence (Q13797 30-1035): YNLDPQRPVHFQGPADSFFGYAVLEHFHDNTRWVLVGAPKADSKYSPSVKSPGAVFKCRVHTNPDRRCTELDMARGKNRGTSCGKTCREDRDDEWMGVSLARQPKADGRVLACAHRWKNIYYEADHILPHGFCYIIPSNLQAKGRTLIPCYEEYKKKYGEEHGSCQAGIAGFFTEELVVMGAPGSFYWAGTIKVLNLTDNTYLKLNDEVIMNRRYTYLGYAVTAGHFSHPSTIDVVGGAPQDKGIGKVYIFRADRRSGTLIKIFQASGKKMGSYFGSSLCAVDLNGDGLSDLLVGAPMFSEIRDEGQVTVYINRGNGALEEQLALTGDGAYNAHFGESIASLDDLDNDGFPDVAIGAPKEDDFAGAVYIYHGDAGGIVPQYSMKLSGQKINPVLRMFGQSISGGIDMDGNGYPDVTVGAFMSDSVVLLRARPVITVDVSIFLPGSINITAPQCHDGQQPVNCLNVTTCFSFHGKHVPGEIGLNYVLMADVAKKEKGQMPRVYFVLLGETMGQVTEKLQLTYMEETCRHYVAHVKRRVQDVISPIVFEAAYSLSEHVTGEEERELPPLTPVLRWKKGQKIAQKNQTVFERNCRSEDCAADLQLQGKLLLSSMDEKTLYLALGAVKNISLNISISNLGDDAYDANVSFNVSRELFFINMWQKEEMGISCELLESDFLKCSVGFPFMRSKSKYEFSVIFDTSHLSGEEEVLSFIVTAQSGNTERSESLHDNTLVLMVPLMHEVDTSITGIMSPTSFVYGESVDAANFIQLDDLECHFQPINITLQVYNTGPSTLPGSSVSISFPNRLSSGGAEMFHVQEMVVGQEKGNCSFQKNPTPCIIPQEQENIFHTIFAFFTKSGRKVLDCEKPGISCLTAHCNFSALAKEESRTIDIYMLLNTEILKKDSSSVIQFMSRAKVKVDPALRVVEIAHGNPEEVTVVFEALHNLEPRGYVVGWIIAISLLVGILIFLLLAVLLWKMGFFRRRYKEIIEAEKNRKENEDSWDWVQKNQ
T6 sequence (P05556 21-798): as the sequence (P05556 21-798) above
As to the kind of experiment: adhesion of SW480α9 cells to VCAM-1. Conditions: α9β1, VCAM-1. It counts as cell-based.

Another assay addresses T7, αIIbβ3 integrin (Homo sapiens, UniProt P05106+P08514).
T7 construct: expressed in transfected cells; host or cells: A5 cells
As to the kind of experiment: adhesion of A5 cells to fibrinogen. In kind it is cell-based. The method, then: as §1, §2

A further assay concerns the target T8, αvβ3 integrin (Homo sapiens, UniProt P05106+P06756).
T8 construct: endogenous in cells; host or cells: JY cells
The assay can be described thus: adhesion of JY cells to vitronectin. In kind it is cell-based. Conditions: αvβ3, VN.

For another assay, the system named is Lewis lung carcinoma. The assay can be described thus: Lewis lung carcinoma growth in syngeneic mouse model. In kind it is in vivo, C57BL/6 mice. Conditions: 5 mg/kg intraperitoneally once daily for eight days. The procedure: Lewis lung carcinoma cells (1×10^6) were injected under the skin of the C57BL/6 mice (Tacoma Inc., Germantown, N.Y.), and tumors were allowed to grow for one week. The average tumor size after one week of growth was approximately 0.08 cm^3. The one-week time-point was called “day 0.” Two treatment groups of four mice each were injected intraperitoneally once daily with either 5 mg/kg obtustatin or 5 mg/kg echistatin beginning on day 0 for a total of eight days. A control group of four mice received only PBS. Tumor volume was measured daily using the formula length×width^2×0.52.

The next assay concerns the target α2β1 integrin (Homo sapiens, UniProt P05556+P17301). The assay can be described thus: adhesion of α2K562 cells to collagen I. In kind it is cell-based. Details: expressed in transfected cells; host or cells: α2K562 cells. The procedure: as §1, §2
Assay [5] relates to dermal microvascular endothelial cells (EC). As to the kind of experiment: apoptosis by caspase-3 levels in dermal microvascular endothelial cells. It counts as cell-based. The method, then:
(§3) The mechanisms of the cancer-suppressing effect observed for obtustatin were investigated as follows. Dermal microvascular endothelial cells (EC) and human melanoma cells (MV3) were cultured and exposed to TNF-α, vincristine and obtustatin. (TNF-α and vincristine are compounds which induce cell death by apoptosis in both normal and cancerous cells.) Control cells received only vehicle. The extent of apoptosis was measured by determining caspase-3 levels.

Assay [6] relates to human melanoma cells (MV3). The assay can be described thus: apoptosis by caspase-3 levels in melanoma MV3 cells. In kind it is cell-based. The method, then: as §3
The test system of the next assay is angiogenesis. The assay can be described thus: Japanese quail chorioallantoic membrane (CAM) angiogenesis assay. Conditions: 20 μg and 50 μg, in words. In kind it is in vivo. The method, then:
The disintegrins obtustatin and eristostatin were evaluated for their effect on angiogenesis via a Japanese quail chorioallantoic membrane (CAM) assay, as is known in the art (see, for example, Parsons-Wingerter P et al., “A Novel Assay of Angiogenesis in the Quail Chorioallantoic Membrane: Stimulation by bFGF and Inhibition by Angiostatin According to Fractal Dimension and Grid Intersection.” Microvascular Research 55(3):201-214, 1998, the disclosure of which is herein incorporated by reference).

Results on six molecules are retold here after US20030186334A1, “KTS-disintegrins” (Temple University - Of the Commonwealth System of Higher …, priority 2001, published 2003).

A value given as a limit tells only on which side of the number the result lay.

In the case of CKLKPAGTTC (obtustatin fragment), in the assay with α1β1 integrin [1] (in words), the “inhibition of α1β1 integrin-mediated adhesion of α1K562 cells to collagen IV” value is “did not appreciably inhibit”.

Regarding “Echistatin: short RGD-containing disintegrin (QCESGPCCRNCKFLKEGTICKRARGDDMDDYCNGKTCDCPRNPHKGPAT) [reference compound]”, the IC50 is above 10 µM with α1β1 integrin [1]; above 10 µM with α1β1 integrin [2]; above 10 µM in the assay with α1β1 integrin [3]; above 10 µM in the assay with α1β1 integrin [4]; above 10 µM with α6β1 integrin; 0.05 µM with α5β1 integrin. In addition, the IC50 with α4β1 integrin was above 10 µM; with α9β1 integrin it was above 10 µM; in the assay with αIIbβ3 integrin it was 0.05 µM; in the assay with αvβ3 integrin, 0.0001 µM; with α2β1 integrin, above 10 µM. In addition, the “inhibition of tumor development (tumor volume)” value in the assay on Lewis lung carcinoma was “no effect”.

With “Viperisrastatin (CTTGPCCRQCKLKPAGTTCWKTSRTSHYCTGKSCDCPVYQG)”, the IC50 is 8e-05 µM with α1β1 integrin [1]; 2e-05 µM with α1β1 integrin [2]; 2e-06 µM with α1β1 integrin [3]; 0.00025 µM with α1β1 integrin [4]; above 10 µM in the assay with α6β1 integrin; above 10 µM in the assay with α5β1 integrin. Moreover, the IC50 with α4β1 integrin, in the assay with α9β1 integrin, in the assay with αIIbβ3 integrin, in the assay with αvβ3 integrin and with α2β1 integrin was above 10 µM in each case. Further, the “activity relative to obtustatin, mouse α1β1 integrin” value with α1β1 integrin [4] is listed as “similar”.

On to TNF-α, for which the “apoptosis (caspase-3)” value in assay [5] and in assay [6] was “induced apoptosis” each time.

As for `CC[C@]1(O)C[C@H]2CN(CCc3c([nH]c4ccccc34)[C@@](C(=O)OC)(c3cc4c(cc3OC)N(C=O)[C@H]3[C@@](O)(C(=O)OC)[C@H](OC(C)=O)[C@]5(CC)C=CCN6CC[C@]43[C@@H]65)C2)C1` [vincristine], the “apoptosis (caspase-3)” value in assay [5] and in assay [6] was “induced apoptosis” throughout.

As for “Eristostatin: short disintegrin compared with obtustatin (QEEPCATGPCCRRCKFKRAGKVCRVARGDWNDDYCTGKSCDCPKNPWNG) [reference compound]”, the concentration for half-maximal inhibition (IC50) with α1β1 integrin [1], with α1β1 integrin [2], in the assay with α1β1 integrin [3], in the assay with α1β1 integrin [4], with α6β1 integrin and with α5β1 integrin was above 10 µM throughout. The IC50 is above 10 µM with α4β1 integrin, above 10 µM with α9β1 integrin, 2 µM with αvβ3 integrin and above 10 µM in the assay with α2β1 integrin. In the assay on angiogenesis, the “effect on angiogenesis (fractal dimension)” value is “no affect”.

In general, IC50 refers to the point on the concentration scale where inhibition reaches its midpoint. Lower therefore signals inhibition by little substance.
